# Measured values reported in patent US20180030111A1.
# Like-named read-outs stand apart in the source and are kept apart here.
# What was measured:
# [1] = target: C1q complement (rabbit serum as complement source) (rabbit); assay: cell-based or functional assay
# [2] = target: FcgRIIIa receptor (CD16a) on human NK cells (human) (UniProt P08637); assay: cell-based or functional assay
# [3] = target: C1q complement (rabbit serum as complement source) (rabbit); assay: cell-based or functional assay; remark: listed apart in the source
# [4] = target: CD32aH (FcgRIIa receptor, H at position 131) (human) (UniProt P12318); assay: ELISA, purified IgG on coated receptor, ratio against wild-type
# [5] = target: CD32aR (FcgRIIa receptor, R at position 131) (human) (UniProt P12318); assay: as above
# [6] = target: CD32b (FcgRIIb receptor) (human) (UniProt P31994); assay: as above
# CD64 = CD64 (UniProt P12314); assay: as above
# Chain of CD64 (P12314 16-288 limits assumed): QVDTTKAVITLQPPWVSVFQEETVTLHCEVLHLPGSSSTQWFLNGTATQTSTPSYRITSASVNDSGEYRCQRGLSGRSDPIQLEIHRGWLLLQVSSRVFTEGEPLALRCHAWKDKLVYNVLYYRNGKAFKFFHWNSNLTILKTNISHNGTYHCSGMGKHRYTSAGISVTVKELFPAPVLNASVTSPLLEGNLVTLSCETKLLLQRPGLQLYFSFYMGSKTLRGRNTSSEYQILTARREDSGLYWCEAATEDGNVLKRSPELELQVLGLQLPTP
# Chain of FcgRIIIa receptor (CD16a) on human NK cells (human) (P08637 17-254): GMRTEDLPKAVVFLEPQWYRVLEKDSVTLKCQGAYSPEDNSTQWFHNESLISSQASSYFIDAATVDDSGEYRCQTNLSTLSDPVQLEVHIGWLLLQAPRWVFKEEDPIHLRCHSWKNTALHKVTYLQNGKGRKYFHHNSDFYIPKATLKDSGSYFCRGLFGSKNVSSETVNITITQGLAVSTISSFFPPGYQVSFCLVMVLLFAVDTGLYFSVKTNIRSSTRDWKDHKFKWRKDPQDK
# Chain of CD32b (FcgRIIb receptor) (human) (P31994 46-217): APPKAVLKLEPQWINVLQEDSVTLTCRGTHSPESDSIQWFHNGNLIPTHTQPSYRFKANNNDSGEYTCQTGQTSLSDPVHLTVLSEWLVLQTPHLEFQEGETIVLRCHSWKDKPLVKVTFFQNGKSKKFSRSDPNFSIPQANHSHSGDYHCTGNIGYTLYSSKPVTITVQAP
# Chain of CD32aH (FcgRIIa receptor, H at position 131) (human) (P12318 34-217): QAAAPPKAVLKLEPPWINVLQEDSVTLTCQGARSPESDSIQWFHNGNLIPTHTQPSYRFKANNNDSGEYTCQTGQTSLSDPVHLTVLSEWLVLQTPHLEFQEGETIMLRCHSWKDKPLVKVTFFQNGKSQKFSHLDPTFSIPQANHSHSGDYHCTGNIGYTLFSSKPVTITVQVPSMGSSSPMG
Substance,CDC [1],ADCC [2],"ADCC, EC50: Antibody concentration (ng/ml) giving 50% maximum lysis of an internal control [2] [ng/mL]","ADCC, Ratio [WT]/[antibody] [2]","CDC, Antibody concentration (ng/ml) giving 50% lysis of an internal control [3] [ng/mL]","CDC, Ratio [WT]/[antibody] [3]",ELISA ratio (purified antibodies) [4],ELISA ratio (purified antibodies) [5],ELISA ratio (purified antibodies) [6],ELISA ratio (purified antibodies) (CD64),"CDC, Antibody concentration (ng/ml) giving 50% lysis of an internal control [1] [ng/mL]","CDC, Ratio [WT]/[antibody] [1]"
"anti-CD20 IgG variant A3A-14 (S298N, A378V) (antibody)",0.7,12.8,0.82,12.8,341,0.7,1.1,0.8,0.9,1.6,–,–
"anti-CD20 IgG variant A3A-105D (G316D, K326E, A378V) (antibody)",6.1,8.3,1.27,8.28,38.5,6.14,1.4,2.6,2,1.5,–,–
"anti-CD20 IgG variant A3A-184 (K334N, P352S, V397M) (antibody)",2.2,5.3,–,–,–,–,1.33,3.2,3.3,1.4,210,1.25
"anti-CD20 IgG variant A3A-184A (K334N, P352S, V397M, A378V) (antibody)",3.2,30.9,0.34,30.9,74.1,3.2,1.3,4.3,3.1,1.5,–,–
"anti-CD20 IgG variant DL4A-54 (P352L, Q418P) (antibody)",–,–,> 5000,< 0.002,165,1.44,–,–,–,–,–,–
"anti-CD20 IgG variant G3A-43 (A231V, A378V) (antibody)",2.8,12,–,–,–,–,5.3,3.6,2.7,1.4,168,1.55
"anti-CD20 IgG variant G3A-45 (K246R, A378V) (antibody)",–,–,–,–,–,–,–,–,–,–,195,1.34
"anti-CD20 IgG variant G3A-88 (K320E, T394P, G402D) (antibody)",0.9,1.3,8.07,1.3,274,0.86,2.94,3.7,3.9,2.4,–,–
"anti-CD20 IgG variant G3A-95 (I336T, A378V) (antibody)",1.3,10.8,0.97,10.8,177,1.34,0.7,0.9,1,1.3,–,–
"anti-CD20 IgG variant G3A-103 (K248E, A378V) (antibody)",7.1,33.9,0.31,33.9,33.3,7.1,0.5,0.9,1.2,1.2,–,–
"anti-CD20 IgG variant G3A-139 (T307N, V323I) (antibody)",–,–,2.8,3.75,85.7,2.76,–,–,–,–,–,–
"anti-CD20 IgG variant J3A-06 (A378T, V397M, V412M) (antibody)",3.7,8.3,1.27,8.28,64.1,6.7,0.84,2,2.4,1.3,–,–
anti-CD20 IgG variant J3A-14 (K326T) (antibody),3.7,–,7.39,–,64.1,–,–,–,–,–,–,–
"anti-CD20 IgG variant J3A-16 (N286Y, P352S, A378V) (antibody)",1.8,8.3,1.27,8.28,132,1.79,2.61,1.7,1.7,1.3,–,–
